Measurements taken from patent US20240352121A1, “LAIR-1 AGONISTIC ANTIBODIES AND METHODS OF USE THEREOF” (NEXTCURE, INC., priority 2023, published 2024).

Key:
SoC-resistant AML cells = assay: Ex vivo killing of VEN/AZA-treated AML patient leukemic cells; assay type: cell-based, human; conditions: 5 μg/mL of antibody; fresh BM leukemic cells from a patient treated with VEN/AZA
Protocol: (§1) Ex vivo killing of VEN/AZA-treated AML patient leukemic cells (FIG. 7A) or T cells or NK cells (FIG. 7B). Values normalized to vehicle control. Lines represent linear regression of NC525 concentration versus normalized cell killing. […] FIGS. 7D and 7E show in vivo leukemic growth as measured by whole-body luminescence of MV4-11-luciferase cells (FIG. 7D) or survival (FIG. 7E) of CDX mice treated with 10 mg/kg isotype control (gray) or NC525 (red) or 100 mg/kg VEN (pink) or 0.5 mg/kg AZA (blue) or combination therapy (green or yellow, respectively). BLoD, below limit of detection. n=9 mice per group. P values determined by 2-way ANOVA or log-rank (Mantel-Cox) test, respectively. FIGS. 7F and 7G show leukemic growth in the blood (FIG. 7F) and in the spleen and BM (FIG. 7G) at week 8 after transplant of AML PDX mice treated with vehicle (gray), VEN/AZA (blue), NC525 (red), or VEN/AZA plus NC525 (green). n=5-10 mice per group. AML cells in spleen and BM compared from 4-5 mice per group. Data are shown as the mean±SEM. P values determined by 2-way ANOVA or 1-way ANOVA with multiple comparisons.

[1] = test system: healthy T cells or NK cells; assay: Ex vivo killing of T cells or NK cells of a VEN/AZA-treated AML patient; assay type: cell-based, human; conditions: same patient sample
Protocol: as §1

[2] = test system: AML patient bone-marrow cells (LSCs); assay: Colony forming unit assay, AML patient bone-marrow; assay type: cell-based, human; conditions: titrated concentrations, dose-response; vs isotype or vehicle
Protocol: Cryopreserved AML bone-marrow cells or healthy donor CD34 cells were thawed and plated in 96 wells plates. Cells were engaged with the indicated concentrations of LAIR-1 mAb or isotype control for 30 min at room temperature. Subsequently, cells were diluted in IMDM with 2% FBS and mixed with semisolid methylcellulose-based medium (MethoCult H4435 Enriched, StemCell Technologies, Vancouver, Canada) which contains human cytokines (stem cell factor, IL-3, IL-6, EPO, G-CSF, GM-CSF). Then, between 1e4 and 2.5e5 LSCs, or, between 1e3 and 5e3 healthy donor CD34 cells per well were plated on 6-well SmartDishes (StemCell Technologies, Vancouver, Canada). The cell-loaded plates were incubated at 37° C. with 5% CO2 in air and ≥95% humidity. On day 14, colony formation was counted by STEMvision (StemCell Technologies, Vancouver, Canada), an automated and standardized colony counting instrument. The automated results were confirmed and edited manually by the STEMvision Colony Marker software.

[3] = test system: healthy human primary immune cells; assay: Effect on healthy human immune cells in mice reconstituted with human CD34 cells; assay type: in vivo, NSG-SGM3 mice
Protocol: NSG-SGM3 mice were purchased from Jackson Laboratory. Mice were engrafted with CD34+ cord blood cells donor #2523. Mice treated weekly beginning 18 weeks after engraftment with anti-human LAIR-1 mAb clone 11B3 in human G1 or G4P format, or control at 100 μg/mouse (5 mg/kg) for 4 weeks. Bleed at weeks 2 (1 day prior to 2nd dose) and 4 (one day prior to 4th dose) for circulating immune cells. Mice were sacrificed 1 week after final dose for analysis of spleen, LN and bone marrow. FIGS. 35A-35B show total body weight and survival of NSG-SGM3 mice reconstituted with human CD34+ cord blood cells and treated 11B3 antibodies. FIGS. 35C-35G show time-course follow-up of the changes in the immune cell numbers in the blood collected from NSG-SGM3 reconstituted with human CD34+ cord blood cells. FIGS. 35H-35I show Analysis of immune cell numbers in the spleen and bone marrow collected from NSG-SGM3 reconstituted with human CD34+ cord blood cells.
For assessment of mAb impacts on normal human immune cells, NSG-SGM3-CD34^+ fully engrafted humanized mice (>25% human CD45+ leukocytes in circulation) were purchased from Jackson Laboratory (stock #2523, Bar Harbor, ME). […] Absolute numbers of cell subpopulations were calculated, as well as percentages of each population subset as a percentage of total CD45^+ cells and total leukocyte gate.

MV4-11-Luc cells = assay: In-vitro phagocytosis (ADCP) assay, mouse bone marrow macrophages with MV4-11-Luc cells; assay type: cell-based, human; conditions: 20 μg/ml, 16 hours
Protocol: Mouse BMM was generated with 100 ng/ml M-CSF (Cat #416-ML-500) using seed BMM cells at 1e5/well in 24 well plate. Stain was done with Cell trace violet (Thermofisher). Target MV411 cells were labeled with PKH26 (Sigma #PKH26gl-1kt) according to manufacturer's instructions and cocultured with BMM at ratio of 5:1 in presence of 20 μg/ml h11B3 or control antibody for 16 hours. Phagocytosis was analyzed by flow cytometry.

B1: LAIR-1 mAb: humanized agonist anti-LAIR-1 mAb, IgG1 backbone; h11B3 VL-2 (SEQ ID NO: 16), h11B3 VH-3 (SEQ ID NO: 27) (antibody, V domains shown)
VH: EVQLVESGGGLVQPGGSLKLSCAASGFTFNTNAMYWVRQAPGKGLEWVGRIRSKSSNYATYYAASVKGRFTISRDDSKNTLYLQMNSLKTEDTAVYYCVRGGSGFFAYWGQGTLVTVSS
VL: DIQMTQSPSSLSASLGDRVTITCKASEDIYIRLAWYQQKPGKAPRLLISTATSLETGVPSRFSGSGSGTDYTFTISSLQPEDIATYYCQQYWSTPYTFGGGTRLEIK
modifications: IgG1 constant regions; Synthetic: h11B3 VH-3; Synthetic: h11B3 VL-2
killing of SoC-resistant AML cells (SoC-resistant AML cells): up to 70%
impact on healthy T cells or NK cells [1]: no impact
CFU formation [2]: significantly decreased
depletion, inhibition, or expansion of healthy human primary immune cells ([3]; 100 μg/mouse (5 mg/kg) weekly for 4 weeks): no depletion, inhibition, or expansion
effects on healthy immune cells in the spleen or the bone-marrow ([3]; NSG mice reconstituted with healthy human CD34 stem cells): minimal effects
ADCP activity (MV4-11-Luc cells): induces ADCP activity
